From the supplement of paper PMC12042874
± gives the uncertainty stated by the source.

Test: amyloid nucleation score (Sup35N fusion, yeast selection) (log enrichment); library NNK1; higher = more nucleation; inactive = no reads after selection
How it was run: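 Nucleation score is defined as the DiMSum log enrichment of output over input reads, with centring on the mode score of non-aggregating sequences. A minimum of 100 input reads was required for each sequence. Reads came from Illumina sequencing of plasmid inserts from psi-negative yeast expressing Sup35N fused to peptides of 20 random codons, induced with 100 μM copper sulfate for 24 hours and grown 7 days at 30°C on medium lacking adenine and uracil.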

Substance | amyloid nucleation score
TTSYHTNGRAVRIVYPFANS | -0.096 ± 0.6
TTVGNVFSGVHV | 0.027 ± 1.7
TTVRGASANHVLTCYCPHYL | 0.601 ± 0.82
TTYHCGP | 0.039 ± 1.5
TVAGVR | 0.174 ± 0.4
TVDVPLAASSNKYKFMFYCE | 3.92 ± 0.098
TVFMVKDRVILRFGRGLKAW | -1.09 ± 1.1
TVKDNHVLEEFVTFYVVYKS | -0.013 ± 0.27
TVLFV | 0.298 ± 0.38
TVLIILRALLNSSPKTFD | 0.387 ± 0.22
TVLPF | 1.6 ± 0.55
TVLWWSSGDSGSCWYYCKIE | -0.177 ± 0.31
TVMSNHGHLMKYYFVRLEGF | 0.759 ± 0.62
TVNRG | 0.409 ± 1.4
TVNTYSANDYVRTMVCELSV | inactive
TVNVFFLQACSRSC | 7.73 ± 0.06
TVRGGLY | -1.04 ± 0.62
TVTDYKTYASLLFGTKTYAI | 2.17 ± 0.47
TVTGFMF | -0.645 ± 1.7
TWCCEVNAAVEHG | -1.17 ± 1.1
TWCTV | 0.082 ± 0.28

Substance | amyloid nucleation score
TWIEDCSYYEMYTGPERTLT | -0.282 ± 0.46
TWNTL | -0.343 ± 0.4
TWNVMYRIRF | 2.04 ± 0.23
TWRFVFCFFWTRGPRLLICA | -0.768 ± 0.37
TWRLDIFGGRRGRVASRKKW | -0.076 ± 0.96
TWTLL | 1.18 ± 0.63
TWWCV | -0.285 ± 0.27
TYEPKGRLPCWCSAQSMGCL | -0.096 ± 0.34
TYHFCLFMSYSGSNRAALCN | -0.212 ± 1
TYMTSTMQLRHTFFRSQANL | 2.7 ± 0.098
TYNCILNSCSSSYTKVLV | 0.703 ± 0.24
TYNYFCGLVIVVVNGVHLRV | 5.507 ± 0.047
TYPYFDWPFRTRRLMEVSET | -0.4 ± 0.63
TYTCPVGNWVRMEGDLYFLA | -0.847 ± 1.3
TYVCDMEHSVYCYYVEAQLY | 0.49 ± 0.4
TYWEMVHWGQEASMGSIRRR | 1.97 ± 0.24
VAASFCYIYRRYPSLFLGSR | 0.422 ± 0.53
VACLKRW | -0.29 ± 0.42
VACNIGHSYVNYYCRGIILC | 0.586 ± 0.4
VACRRTSKGEYYFQSMICDL | inactive
VAEWRSMNVGVGRATIEGLS | 0.579 ± 0.28

Substance | amyloid nucleation score
VALDSSLHTSVYRIVSLSIG | -0.159 ± 0.52
VALLKWFRIWVSFANCLWGR | 0.128 ± 0.99
VASYFGLVRNSNLDLYLHCR | -0.131 ± 0.23
VAYRVFCD | 0.51 ± 0.36
VCCSATISTIVFSYFYTGKR | 7.506 ± 0.053
VCILFSAPDNMWFFSD | 1.49 ± 0.45
VCTNRYGPCSPS | 4.26 ± 0.09
VCVHDLCSLIQLGAYVMRET | 0.383 ± 0.29
VCVWCKISPSTYCALIFGDL | -0.181 ± 0.32
VCYVAMLNHTSPMSLASSAR | inactive
VDIKFFMGLAFMWRYSSTAD | -0.063 ± 0.39
VDMNWVITGTNWEFRLRVDA | 0.24 ± 0.43
VDNDLGQLPGMW | -0.561 ± 1.7
VDNIYAGVELLFSCKM | -0.331 ± 0.28
VDNVRPWRGYQPHSLVLPIV | 0.516 ± 0.47
VDQVQDNLKFEIGKYSYWYS | 0.128 ± 0.27
VDRILFNVLAVSFDMELRSL | 0.224 ± 0.24
VDSLITRSWVDHHNKYNHGI | 0.635 ± 0.64
VDVYFTSAMLSRLGLVGAVA | 0.862 ± 0.64
VECSCKLRLAASGGNYRGWG | 2.3 ± 0.25
VEDENKDSVIKVEKLLPHNL | -0.342 ± 0.29
